≈ marks a conversion by molar mass, not a printed value. Where two headings read alike, the source gives them in different places. Numbered stars: 1 amine (or outer) side, 2 acyl side, 3 side chain; on linkers, the order of the positions; unused ones are H or OH. Square brackets hold non-standard residues; d marks the D form. Side chains are listed from the residue outwards. Ends that are not written are not given here. Peptide text beside a SMILES is read from it. * marks the point of attachment. C20 diacid = O=C(O)CCCCCCCCCCCCCCCCCCC(=O)*; γGlu = O=C(O)[C@H](CCC(=O)[*:2])N[*:1]; AEEA = NCCOCCOCC(=O)O; Aib = CC(C)(N)C(=O)O
Legend:
[1] = Thioflavin T fibril formation assay of purified peptides; format: physicochemical; settings: 267 μM, phosphate buffer pH 7.0, 96 h at 40° C.
Method: Thioflavin T fibril formation assay: Peptides are dissolved as 267 μM in 50 mM phosphate buffer pH 7.0 for 2 h at room temperature on a rocking table. The samples were then divided into three replicates of 80 μl/well and mixed with 2 μl/well Thioflavin T (ThT) to a final concentration of 4 μM ThT in a black 384 well microplate with a clear bottom (Greiner #781096). The plate is inserted in a CLARIOstar Plus microplate reader (BMG Labtech) and fibril formation is measured as an increase in fluorescence emission at 480 nm (excitation at 450 nm) during 96 h at 40° C. with cycles of 5 min rest and 5 min linear shaking at 700 rpm.

[2] = Turbidity of crude library peptides (absorbance at 600 nm); format: physicochemical; settings: Physical stability of peptides
In short: (§1)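 Crude peptides at 267 μM in 50 mM sodium acetate pH 4.0 or 50 mM sodium phosphate pH 7.0, pre-incubated 1-2 h at room temperature, then 4 μM final ThT added. Turbidity read first as A600. ThT fluorescence (ex 450/em 480 nm) read every 10 min for 72 h at 40° C, with 5 min shaking before each read; fibril formation = average emission.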

[3] = Solubility of purified peptides; format: physicochemical; settings: 100 mM phosphate buffer, target pH 7.0, target approximately 10 mg/mL
Method: Solubility was tested in the following vehicles: 100 mM phosphate buffer facilitating a target pH of 7.0. Samples were directly dissolved in Mini-UniPrep Syringeless Filter 0.45 μm unit (Whatman). For the desired concentration, such as a concentration of approximately 10 mg/mL, 1050 nmol of peptide was dissolved in 400 μL vehicle. Samples were incubated for at least 1 h at room temperature on a rocking table. The pH was measured and adjusted. Samples were left on the rocking table for an additional hour before a second pH measurement and adjustment. Visual inspection was performed and noted before the filter was pushed. The concentration of peptide in the filtrate was determined using CAD (Charged Aerosol Detection), double determination was done for each sample. The measured concentration was reported in μM. Furthermore, the pH of the filtrate was measured and reported. Peptides with a measured concentration within +/−20% of target concentration are considered fully soluble.

[4] = Fibril formation of crude library peptides (Thioflavin T); format: physicochemical; design: key: average ThT fluorescence emission at 480 nm (ex 450 nm), raw units; settings: Physical stability of peptides
In short: as §1

[5] = molecular target: SCTR (Homo sapiens, UniProt P47872); assay: hSCTR potency, cAMP accumulation in CHO-K1 cells stably overexpressing hSCTR; format: cell-based; design: alternatively Euroscreen ES-712-AF; FAST-0161L; host or cells: CHO-K1
Sequence of SCTR (P47872 23-440): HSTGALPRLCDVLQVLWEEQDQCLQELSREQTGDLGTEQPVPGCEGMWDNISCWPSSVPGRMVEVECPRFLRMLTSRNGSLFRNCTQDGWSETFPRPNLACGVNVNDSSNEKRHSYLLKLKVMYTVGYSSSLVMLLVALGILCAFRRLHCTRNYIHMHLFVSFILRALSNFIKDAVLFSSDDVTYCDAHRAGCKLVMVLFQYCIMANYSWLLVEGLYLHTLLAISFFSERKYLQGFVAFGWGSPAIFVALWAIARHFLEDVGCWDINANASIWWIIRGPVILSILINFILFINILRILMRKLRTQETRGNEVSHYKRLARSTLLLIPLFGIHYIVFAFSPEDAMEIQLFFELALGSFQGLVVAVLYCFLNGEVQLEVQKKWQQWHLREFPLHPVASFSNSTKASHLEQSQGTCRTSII
In short: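 Read-out is TR-FRET cAMP detection, recorded one hour after reagent addition, in CHO-K1 cells stably overexpressing hSCTR. Cells in DPBS containing 0.05% casein and 0.5 mM IBMX are exposed to graded peptide doses for 30 min at room temperature, with human secretin as reference agonist.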

[6] = molecular target: GLP1R (Homo sapiens, UniProt P43220); assay: hGLP1R potency, cAMP accumulation in CHO-K1 cells stably overexpressing hGLP1R; format: cell-based; design: host or cells: CHO-K1
Sequence of GLP1R (P43220 24-463): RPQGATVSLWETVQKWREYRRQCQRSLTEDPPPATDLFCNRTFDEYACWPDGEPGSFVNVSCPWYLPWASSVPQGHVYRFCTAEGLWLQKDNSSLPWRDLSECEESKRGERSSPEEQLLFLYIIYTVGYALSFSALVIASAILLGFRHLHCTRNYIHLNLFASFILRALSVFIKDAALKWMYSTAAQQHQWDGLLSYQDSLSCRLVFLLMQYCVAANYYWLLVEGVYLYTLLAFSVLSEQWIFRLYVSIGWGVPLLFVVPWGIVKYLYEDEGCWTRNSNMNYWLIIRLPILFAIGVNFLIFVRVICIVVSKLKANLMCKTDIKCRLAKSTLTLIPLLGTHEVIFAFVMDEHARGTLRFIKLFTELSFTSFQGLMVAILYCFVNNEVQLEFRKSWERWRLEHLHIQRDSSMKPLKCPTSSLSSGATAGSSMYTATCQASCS
In short: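 Thawed cells go straight into buffer containing 0.5 mM IBMX and 0.05% casein, get graded compound doses for 30 min at room temperature, and are then assayed for accumulated cAMP by time-resolved FRET. Human GLP-1(7-36) serves as positive control; EC50 is derived by nonlinear regression.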

[7] = molecular target: T1, human GLP-1 receptor (hGLP1R) (human, UniProt P43220 24-463); assay: cell-based or functional assay
[8] = molecular target: T2, human secretin receptor (hSCTR) (human, UniProt P47872 23-440); assay: cell-based or functional assay
T2 sequence (P47872 23-440): as the sequence (P47872 23-440) above

[9] = molecular target: T1, human GLP-1 receptor (hGLP1R); assay: cell-based or functional assay; remark: listed apart in the source
[10] = molecular target: T2, human secretin receptor (hSCTR); assay: cell-based or functional assay; remark: listed apart in the source

CC(C)C[C@H](NC(=O)[C@H](Cc1ccccc1)NC(=O)[C@H](CCCNC(=N)N)NC(=O)[C@H](CCC(N)=O)NC(=O)[C@H](CC(C)C)NC(=O)C(C)(C)NC(=O)[C@H](C)NC(=O)[C@H](CCC(=O)O)NC(=O)[C@H](CCC(=O)O)NC(=O)[C@H](CCCCNC(=O)COCCOCCNC(=O)COCCOCCNC(=O)CC[C@H](NC(=O)CCCCCCCCCCCCCCCCCCC(=O)O)C(=O)O)NC(=O)[C@H](CC(C)C)NC(=O)[C@H](CCC(=O)O)NC(=O)[C@H](CO)NC(=O)[C@@H](NC(=O)[C@H](CC(=O)O)NC(=O)[C@H](CO)NC(=O)[C@@H](NC(=O)[C@H](Cc1ccccc1)NC(=O)[C@@H](NC(=O)CNC(=O)[C@H](CCC(=O)O)NC(=O)C(C)(C)NC(=O)[C@@H](N)Cc1c[nH]cn1)[C@@H](C)O)[C@@H](C)O)C(C)C)C(=O)N[C@@H](CCC(=O)O)C(=O)N[C@@H](Cc1c[nH]cn1)C(=O)N[C@@H](CC(C)C)C(=O)N[C@H](C(N)=O)C(C)C [compound 168] (H-H[Aib]EGTFTSDVSELK([AEEA-AEEA-γGlu-C20 diacid])EEA[Aib]LQRFLEHLV-NH2)
Fibril formation [1]: No
Turbidity (pH 7) [2]: 0.08
solubility [3]: 9800 µg/mL (≈ 2560 µM)
Fibril formation [4]: 2998
EC50 ([5]; cAMP accumulation, CHO-K1 cells overexpressing hSCTR, read-out: hSCTR pEC50 (converted)): 50.1 nM
EC50 ([5]; purified peptides, read-out: hSCTR EC50): 100 nM
Selectivity ([6]; SCTR EC50/GLP1R EC50 ratio, purified peptides): 8333
EC50 ([6]; cAMP accumulation, CHO-K1 cells overexpressing hGLP1R, read-out: hGLP1R pEC50 (converted)): 0.00631 nM
SCTR EC50/GLP1R EC50 ratio ([6]; selectivity for hGLP1R over hSCTR, cAMP accumulation in CHO-K1 cells): 6853

B1: SEQ ID NO: 220 (peptide)
peptide: H[Aib]EGTFTSDVSRLLEGAALQRFIQWLV-NH2
modifications: N-terminus assumed
SMILES: CC[C@H](C)[C@H](NC(=O)[C@H](Cc1ccccc1)NC(=O)[C@H](CCCNC(=N)N)NC(=O)[C@H](CCC(N)=O)NC(=O)[C@H](CC(C)C)NC(=O)[C@H](C)NC(=O)[C@H](C)NC(=O)CNC(=O)[C@H](CCC(=O)O)NC(=O)[C@H](CC(C)C)NC(=O)[C@H](CC(C)C)NC(=O)[C@H](CCCNC(=N)N)NC(=O)[C@H](CO)NC(=O)[C@@H](NC(=O)[C@H](CC(=O)O)NC(=O)[C@H](CO)NC(=O)[C@@H](NC(=O)[C@H](Cc1ccccc1)NC(=O)[C@@H](NC(=O)CNC(=O)[C@H](CCC(=O)O)NC(=O)C(C)(C)NC(=O)[C@@H](N)Cc1c[nH]cn1)[C@@H](C)O)[C@@H](C)O)C(C)C)C(=O)N[C@@H](CCC(N)=O)C(=O)N[C@@H](Cc1c[nH]c2ccccc12)C(=O)N[C@@H](CC(C)C)C(=O)N[C@H](C(N)=O)C(C)C
pEC50 hGLPR1 [7]: 10.2 -log M
pEC50 hSCTR [8]: 7.2 -log M

B2: SEQ ID NO: 216 (GUB06-046) (peptide)
peptide: H[Aib]EGTFTSDLSRLLEGAALQRFIQWLV-NH2
modifications: N-terminus assumed
SMILES: CC[C@H](C)[C@H](NC(=O)[C@H](Cc1ccccc1)NC(=O)[C@H](CCCNC(=N)N)NC(=O)[C@H](CCC(N)=O)NC(=O)[C@H](CC(C)C)NC(=O)[C@H](C)NC(=O)[C@H](C)NC(=O)CNC(=O)[C@H](CCC(=O)O)NC(=O)[C@H](CC(C)C)NC(=O)[C@H](CC(C)C)NC(=O)[C@H](CCCNC(=N)N)NC(=O)[C@H](CO)NC(=O)[C@H](CC(C)C)NC(=O)[C@H](CC(=O)O)NC(=O)[C@H](CO)NC(=O)[C@@H](NC(=O)[C@H](Cc1ccccc1)NC(=O)[C@@H](NC(=O)CNC(=O)[C@H](CCC(=O)O)NC(=O)C(C)(C)NC(=O)[C@@H](N)Cc1c[nH]cn1)[C@@H](C)O)[C@@H](C)O)C(=O)N[C@@H](CCC(N)=O)C(=O)N[C@@H](Cc1c[nH]c2ccccc12)C(=O)N[C@@H](CC(C)C)C(=O)N[C@H](C(N)=O)C(C)C
pEC50 hGLPR1 [7]: 10.4 -log M
pEC50 hSCTR [8]: 9.3 -log M
pEC50 hGLPR1 [9]: 10.4 -log M
pEC50 hSCTR [10]: 9.3 -log M

B3: SEQ ID NO: 221 (peptide)
peptide: H[Aib]EGTFTSDPSRLLEGAALQRFIQWLV-NH2
modifications: N-terminus assumed
SMILES: CC[C@H](C)[C@H](NC(=O)[C@H](Cc1ccccc1)NC(=O)[C@H](CCCNC(=N)N)NC(=O)[C@H](CCC(N)=O)NC(=O)[C@H](CC(C)C)NC(=O)[C@H](C)NC(=O)[C@H](C)NC(=O)CNC(=O)[C@H](CCC(=O)O)NC(=O)[C@H](CC(C)C)NC(=O)[C@H](CC(C)C)NC(=O)[C@H](CCCNC(=N)N)NC(=O)[C@H](CO)NC(=O)[C@@H]1CCCN1C(=O)[C@H](CC(=O)O)NC(=O)[C@H](CO)NC(=O)[C@@H](NC(=O)[C@H](Cc1ccccc1)NC(=O)[C@@H](NC(=O)CNC(=O)[C@H](CCC(=O)O)NC(=O)C(C)(C)NC(=O)[C@@H](N)Cc1c[nH]cn1)[C@@H](C)O)[C@@H](C)O)C(=O)N[C@@H](CCC(N)=O)C(=O)N[C@@H](Cc1c[nH]c2ccccc12)C(=O)N[C@@H](CC(C)C)C(=O)N[C@H](C(N)=O)C(C)C
pEC50 hGLPR1 [7]: 8.6 -log M
pEC50 hSCTR [8]: 5.3 -log M

B4: SEQ ID NO: 222 (peptide)
peptide: H[Aib]EGTFTSD[Aib]SRLLEGAALQRFIQWLV-NH2
modifications: N-terminus assumed
SMILES: CC[C@H](C)[C@H](NC(=O)[C@H](Cc1ccccc1)NC(=O)[C@H](CCCNC(=N)N)NC(=O)[C@H](CCC(N)=O)NC(=O)[C@H](CC(C)C)NC(=O)[C@H](C)NC(=O)[C@H](C)NC(=O)CNC(=O)[C@H](CCC(=O)O)NC(=O)[C@H](CC(C)C)NC(=O)[C@H](CC(C)C)NC(=O)[C@H](CCCNC(=N)N)NC(=O)[C@H](CO)NC(=O)C(C)(C)NC(=O)[C@H](CC(=O)O)NC(=O)[C@H](CO)NC(=O)[C@@H](NC(=O)[C@H](Cc1ccccc1)NC(=O)[C@@H](NC(=O)CNC(=O)[C@H](CCC(=O)O)NC(=O)C(C)(C)NC(=O)[C@@H](N)Cc1c[nH]cn1)[C@@H](C)O)[C@@H](C)O)C(=O)N[C@@H](CCC(N)=O)C(=O)N[C@@H](Cc1c[nH]c2ccccc12)C(=O)N[C@@H](CC(C)C)C(=O)N[C@H](C(N)=O)C(C)C
pEC50 hGLPR1 [7]: 9.9 -log M
pEC50 hSCTR [8]: 6.5 -log M

B5: SEQ ID NO: 218 (peptide)
peptide: H[Aib]EGTFTSDISRLLEGAALQRFIQWLV-NH2
modifications: N-terminus assumed
SMILES: CC[C@H](C)[C@H](NC(=O)[C@H](Cc1ccccc1)NC(=O)[C@H](CCCNC(=N)N)NC(=O)[C@H](CCC(N)=O)NC(=O)[C@H](CC(C)C)NC(=O)[C@H](C)NC(=O)[C@H](C)NC(=O)CNC(=O)[C@H](CCC(=O)O)NC(=O)[C@H](CC(C)C)NC(=O)[C@H](CC(C)C)NC(=O)[C@H](CCCNC(=N)N)NC(=O)[C@H](CO)NC(=O)[C@@H](NC(=O)[C@H](CC(=O)O)NC(=O)[C@H](CO)NC(=O)[C@@H](NC(=O)[C@H](Cc1ccccc1)NC(=O)[C@@H](NC(=O)CNC(=O)[C@H](CCC(=O)O)NC(=O)C(C)(C)NC(=O)[C@@H](N)Cc1c[nH]cn1)[C@@H](C)O)[C@@H](C)O)[C@@H](C)CC)C(=O)N[C@@H](CCC(N)=O)C(=O)N[C@@H](Cc1c[nH]c2ccccc12)C(=O)N[C@@H](CC(C)C)C(=O)N[C@H](C(N)=O)C(C)C
pEC50 hGLPR1 [7]: 10.4 -log M
pEC50 hSCTR [8]: 7.8 -log M

— patent publication US20260201008A1, “SECRETIN-DERIVED GLP1R SELECTIVE AGONISTS” (GUBRA A/S, priority 2023, published 2026)
